Test results taken from paper PMC3074231 (Journal of neurochemistry, 2011).
Positions count from the first letter of the chain named. In names and notes the source's numbering stands. Several values for one entry are separate records, joined by “and”; a condition that tells them apart may be missing. Equal values may be shown once.

B1: STEP61 Cys 65 to Ser (enzyme, UniProt P54830-1 1-541, looked up)
chain: MCCSERLLGLPQPVEMEAPDEAEGLPSKQKEMPPPPPPSPPSEPAQKLPPQGAGSHSLTVRSSLSLFAASQFLLACGVLWLSGHGHSWLQNTTDLISSSLTVLNHLGPVAWLGSGTWGIPSLLLVSLTVSLVIVTTLVWHLLKAPPEPPAPLPPEDRRQSVSRQPSFTYSEWMEEKVEDDFLDLDAVPETPVFDCVMDIKPETDPASLTVKSMGLQERRGSNVSLTLDMCTPGCNEEGFGYLVSPREESAHEYLLSASRVLRAEELHEKALDPFLLQAEFFEIPMNFVDPKEYDIPGLVRKNRYKTILPNPHSRVRLTSPDPEDPLSSYINANYIRGYSGEEKVYIATQGPIVSTVADFWRMVWQERTPIIVMITNIEEMNEKCTEYWPEEQVVHDGVEITVQKVIHTEDYRLRLISLRRGTEERSLKHYWFTSWPDQKTPDRAPPLLHLVREVEEAAQQEGPHCSPIIVHCSAGIGRTGCFIATSICCQQLRREGVVDILKTTCQLRQDRGGMIQTCEQYQFVHHAMSLYEKQLSLQSSE
B2: STEP61 (STriatal Enriched Phosphatase, membrane associated isoform), wild type (enzyme, UniProt P54830-1 1-541, looked up)
chain: B1 chain with S65C
B3: STEP61 C65S/C76S (enzyme, UniProt P54830-1 1-541, looked up)
chain: B1 chain with C76S
B4: STEP61 Cys 76 to Ser (enzyme, UniProt P54830-1 1-541, looked up)
chain: B1 chain with S65C, C76S

How the values were obtained:
[1] = biological target: STEP46 (cytosolic isoform of STEP), wild type
co-IP [2] = biological target: the molecule itself; test: co-IP
co-IP [3] = biological target: the molecule itself; test: co-IP; remark: listed apart in the source

| phosphatase activity of STEP46 in the presence of H2O2, % of control [1] | Molecule | co-immunoprecipitated STEP61-myc, % of WT control (co-IP [2]) | co-immunoprecipitated STEP61-myc, % of untreated WT control (10 mM H2O2, 5 min) (co-IP [3]) |
| --- | --- | --- | --- |
| 40.3 % of control | STEP46 (cytosolic isoform of STEP), wild type (enzyme) |  |  |
|  | B1 | 38.4 % of control |  |
|  | B2 |  | 232 % of WT control |
|  | B3 | 13.5 % of control and 16.6 % of WT control | 39.4 % of WT control |
|  | B4 | 35.2 % of control |  |
